Measured values: paper PMC7687367

What was measured:
[1] = biological target: SARS-CoV RBD, His-tagged, for antibody binding studies (SARS-CoV) (UniProt P59594); assay: BLI
[2] = biological target: SARS-CoV-2 RBD, His-tagged, for antibody binding studies (SARS-CoV-2) (UniProt P0DTC2); assay: BLI

COVA1-16 IgG1 antibody
Kd [1]: 125 nM
Kd [2]: 0.2 nM

COVA1-16 Fab, His-tagged
Kd [1]: 405 nM
Kd [2]: 46 nM
